This assay deals with human FcRn-b2m protein construct containing an AviTag (human) (UniProt P55899). Put plainly: BLI. For orientation: BLI is a label-free optical method that tracks binding on a fibre tip over time.

pKd: −log10 of the molar value.

Chain of UniProt P55899 (P55899 24-365, chain 1 of 2): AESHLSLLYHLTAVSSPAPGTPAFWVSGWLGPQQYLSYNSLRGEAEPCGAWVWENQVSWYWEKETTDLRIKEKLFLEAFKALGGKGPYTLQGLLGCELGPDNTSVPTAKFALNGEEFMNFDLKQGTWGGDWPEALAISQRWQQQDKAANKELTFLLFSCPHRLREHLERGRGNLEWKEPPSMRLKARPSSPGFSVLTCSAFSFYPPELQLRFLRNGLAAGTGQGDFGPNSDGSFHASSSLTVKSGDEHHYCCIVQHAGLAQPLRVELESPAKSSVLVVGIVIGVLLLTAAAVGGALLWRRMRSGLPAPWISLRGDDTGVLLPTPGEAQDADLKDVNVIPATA
Chain of UniProt P55899 (P61769 21-119, chain 2 of 2, further chain): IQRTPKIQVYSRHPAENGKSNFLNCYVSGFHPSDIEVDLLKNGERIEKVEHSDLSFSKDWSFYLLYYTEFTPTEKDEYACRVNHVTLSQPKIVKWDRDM

As a reminder, the pKd is the Kd on a negative log10 scale, so that one unit is a factor of ten. The low end stands for a large Kd, the high end for a small Kd. Consider “rituximab IgG1, full length (from UniProt P01857 1-399) (antibody)”, for which the negative logarithm of the Kd (pKd) was 7.84.
